Target: T1, mouse PV-1 protein (mouse, UniProt Q91VC4 1-438, limits assumed)
T1 construct: The form tested is not described
T1 sequence: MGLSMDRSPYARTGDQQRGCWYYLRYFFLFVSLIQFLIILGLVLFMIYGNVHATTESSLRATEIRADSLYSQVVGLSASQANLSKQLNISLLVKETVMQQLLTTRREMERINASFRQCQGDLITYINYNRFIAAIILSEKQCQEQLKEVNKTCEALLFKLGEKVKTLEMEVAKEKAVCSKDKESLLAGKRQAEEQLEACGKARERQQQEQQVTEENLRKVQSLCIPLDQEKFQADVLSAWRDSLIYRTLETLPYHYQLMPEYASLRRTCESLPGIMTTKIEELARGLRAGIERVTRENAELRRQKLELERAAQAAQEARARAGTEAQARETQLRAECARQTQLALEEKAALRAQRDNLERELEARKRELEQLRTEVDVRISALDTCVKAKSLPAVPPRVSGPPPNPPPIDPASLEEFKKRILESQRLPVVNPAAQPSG
Assay: not described

B1: murine monoclonal antibody STW-139-15 (antibody, V domains shown)
VH: QVQLQQSGAELVKPGASVKLSCKASGYTFTDYYMYWVKQRPGQGLELIGEINPTNGDVNFNEMFKSKATLTVDTSSRTAYMQLSSLTSEDSAVYYCTSIHYWGQGTLVTVSA
VL: DIVMTQSPSSMYASLGERITITCKASQDIKTNLSWYQQKPWKSPKTLIYYATDLADGVPSRFSGSGSGQYFSLTISSLESDDTATYYCLQHDDRPFTFGSGTKLEIK
**Q.** Does B1 bind?
**A.** Result: no binding
